# T1: EGFR-DEL4 (amino acid 977-1045) protein
# T1 chain: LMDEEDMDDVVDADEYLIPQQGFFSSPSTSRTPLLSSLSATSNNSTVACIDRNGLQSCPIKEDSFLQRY
# T2: GST-tagged EGFR-DEL1 (amino acid 692-891)
# T2 chain: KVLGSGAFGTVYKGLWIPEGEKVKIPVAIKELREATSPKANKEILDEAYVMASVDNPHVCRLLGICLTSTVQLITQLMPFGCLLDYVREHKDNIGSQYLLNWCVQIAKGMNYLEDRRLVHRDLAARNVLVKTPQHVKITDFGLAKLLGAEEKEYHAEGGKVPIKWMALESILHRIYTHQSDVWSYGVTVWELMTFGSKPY
# T3: GST-tagged EGFR-DEL3 (amino acid 1046-1186)
# T3 chain: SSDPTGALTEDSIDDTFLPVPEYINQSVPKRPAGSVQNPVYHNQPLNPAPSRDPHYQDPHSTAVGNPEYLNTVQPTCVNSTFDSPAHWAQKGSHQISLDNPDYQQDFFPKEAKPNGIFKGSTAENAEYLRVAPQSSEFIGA
# Assays:
# [1] = molecular target: catalytically-active recombinant GST-tagged human EGFR (active-rhEGFR; Upstate), P00533
# [2] = molecular target: T1, EGFR-DEL4 (amino acid 977-1045) protein
# [3] = molecular target: GST-tagged EGFR-DEL2 protein (amino acid 889-1045)
# [4] = molecular target: GST-tagged EGFR-DEL2 (Y992A) protein
# [5] = molecular target: T2, GST-tagged EGFR-DEL1 (amino acid …)
# [6] = molecular target: T3, GST-tagged EGFR-DEL3 (amino acid …)
protein,measurement,setting,value
purified recombinant His-tagged TTK (protein) MESEDLSGRELTIDSIMNKVRDIKNKFKNEDLTDELSLNKISADTTDNSGTVNQIMMMANNPEDWLSLLLKLEKNSVPLSDALLNKLIGRYSQAIEALPPDKYGQNESFARIQVRFAELKAIQEPDDARDYFQMARANCKKFAFVHISFAQFELSQGNVKKSKQLLQKAVERGAVPLEMLEIALRNLNLQKKQLLSEEEKKNLSASTVLTAQESFSGSLGHLQNRNNSCDSRGQTTKARFLYGENMPPQDAEIGYRNSLRQTNKTKQSCPFGRVPVNLLNSPDCDVKTDDSVVPCFMKRQTSRSECRDLVVPGSKPSGNDSCELRNLKSVQNSHFKEPLVSDEKSSELIITDSITLKNKTESSLLAKLEETKEYQEPEVPESNQKQWQSKRKSECINQNPAASSNHWQIPELARKVNTEQKHTTFEQPVFSVSKQSPPISTSKWFDPKSICKTPSSNTLDDYMSCFRTPVVKNDFPPACQLSTPYGQPACFQQQQHQILATPLQNLQVLASSSANECISVKGRIYSILKQIGSGGSSKVFQVLNEKKQIYAIKYVNLEEADNQTLDSYRNEIAYLNKLQQHSDKIIRLYDYEITDQYIYMVMECGNIDLNSWLKKKKSIDPWERKSYWKNMLEAVHTIHQHGIVHSDLKPANFLIVDGMLKLIDFGIANQMQPDTTSVVKDSQVGTVNYMPPEAIKDMSSSRENGKSKSKISPKSDVWSLGCILYYMTYGKTPFQQIINQISKLHAIIDPNHEIEFPDIPEKDLQDVLKCCLKRDPKQRISIPELLAHPYVQIQTHPVNQMAKGTTEEMKYVLGQLVGLNSPNSILKAAKTLYEHYSGGESHNSSSSKTFEKKRGKK,"tyrosine phosphorylation of active-rhEGFR (in vitro kinase assay, anti-phospho-tyrosine western blot)",[1],the phosphorylation of active-rhEGFR by TTK was not inhibited by AG1478
same,phosphorylation of EGFR Tyr-992 (in vitro kinase assay),[2],EGFR-DEL4 (amino acid 977-1045) protein was not phosphorylated at Tyr-992 (data not shown)
same,"phosphorylation of EGFR Tyr-992 (in vitro kinase assay, western blot)",[3],Phosphorylation of EGFR Tyr-992 in GST-tagged EGFR-DEL2 protein (amino acid 889-1045) was promoted in a TTK-dose dependent manner
same,phosphorylation site by MALDI tandem mass spectrometry after in vitro phosphorylation,[3],phosphorylation of EGFR Ser-967 was identified (data not shown)
same,"32P incorporation ([gamma-32P] ATP in vitro kinase assay, autoradiography)",[4],"This mutation remarkably reduced the intensity of lower-band, but did not reduce that of upper-band"
same,"tyrosine phosphorylation (in vitro kinase assay, western blot)",[5],"other tyrosine residues in GST-tagged EGFR-DEL1 (amino acid 692-891), EGFR-DEL2 and EGFR-DEL3 (amino acid 1046-1186) proteins were not phosphorylated at all"
same,"tyrosine phosphorylation (in vitro kinase assay, western blot)",[6],"other tyrosine residues in GST-tagged EGFR-DEL1 (amino acid 692-891), EGFR-DEL2 and EGFR-DEL3 (amino acid 1046-1186) proteins were not phosphorylated at all"

# From patent publication US20100009920
